Seven molecules from article PMC10571083, “An Analysis of Nucleotide–Amyloid Interactions Reveals Selective Binding to Codon-Sized RNA” can be followed below.

Data set [1] deals with peptide 7 amyloid (designed). Kind of data set: pelleting/HPLC. Conditions: citrate-phosphate buffer, pH 3 (or pH series), room temperature, overnight, 100 uM peptide with 25 or 50 uM oligo, Kd: 50 uM peptide with 5-200 uM oligo ….
For data set [2], the system named is peptide 4 amyloid (designed). Kind of data set: pelleting/HPLC. As to conditions: pH 3, 100 uM peptide, 50 uM RNA; citrate-phosphate buffer, pH 3 (or pH series), room temperature, overnight, 100 uM peptide with 25 or 50 uM oligo; Kd: 50 uM peptide with 5-200 uM oligo ….
Data set [3] addresses T1, VAQAQINI-NH2 amyloid (designed).
T1 chain: VAQAQINI-NH2
Kind of data set: pelleting/HPLC; Bmax 0.147; citrate-phosphate buffer, pH 3 (or pH series), room temperature, overnight, 100 uM peptide with 25 or 50 uM oligo; Kd: 50 uM peptide with 5-200 uM oligo; supern. As to conditions: single strand.

No end group written: not given here.

As a reminder, the Kd is the free concentration of one partner at which half of the binding sites on the other are occupied at equilibrium, for simple one-to-one binding. A low value points to higher affinity. As for GUGU [pGUGU], the Kd in data set [1] (5' phosphate) stood at 1290 nM.

In data set [1] (5' phosphate), GUGUG [pGUGUG] yielded a Kd of 74.9 nM.

GUG [DNA pGUG] had an equilibrium dissociation constant (Kd) in data set [1] (5' phosphate, DNA backbone (printed with U)) of 117000 nM.

For the molecule GUGUGU [[GU]3], the Kd in data set [1] stood at 856 nM.

GUGUGUG [[GU]3G] registered a Kd in data set [1] of 48.6 nM. This molecule also displayed a binding signal in data set [2] of 100 % bound.

In turn, GUG [pGUG] returned a Kd in data set [1] (5' phosphate) of 82000 nM. Besides, the binding signal in data set [1] (pH 3, 100 uM peptide, 25 uM RNA, peptide 7 or 9 not specified, 5' phosphate) is above 40 % bound.

GUCA (ssRNA, 5' and 3' phosphate) [pGUCAp] displayed a Kd in data set [3] of 1950 nM.
